From PMC8934645, “Discovery of potent and versatile CRISPR–Cas9 inhibitors engineered for chemically controllable genome editing” come the findings set out here.

One data set concerns the target St3Cas9;AcrIIA24 (Streptococcus …, UniProt Q03JI6;A0A3G8FCC3 1-1388;1-104, |). Nature of the data set: EMSA; sgRNA; AcrIIA24 added before DNA; supershift; 20 mM Tris-HCl pH 7.6, 150 mM KCl, 5 mM EDTA (Results text: 10 mM EDTA), 5 mM MgCl2, 1 mM DTT, 5% glycerol, 50 ug/ml heparin, 0.01% Tween 20, 100 ug/ml BSA; RNP and DNA steps 37 C 10 min, Acr RT 20 min; RNP 256 nM, DNA 20 nM; RNA EMSA 256 nM Cas9 and sgRNA, 37 C. The following applies: protein: recombinant;recombinant; tags: His (pET28a, Ni-NTA);tag removed by TEV; copies: 1;1; label: Cy5 on target strand; blunt.

The next data set concerns the target SpyCas9;AcrIIA32.1 (Streptococcus pyogenes;Streptococcus …, UniProt Q99ZW2; 1-1368;, |). Kind of data set: EMSA; sgRNA; AcrIIA32.1 added after DNA; supershift; 20 mM Tris-HCl pH 7.6, 150 mM KCl, 5 mM EDTA (Results text: 10 mM EDTA), 5 mM MgCl2, 1 mM DTT, 5% glycerol, 50 ug/ml heparin, 0.01% Tween 20, 100 ug/ml BSA; RNP and DNA steps 37 C 10 min, Acr RT 20 min; RNP 256 nM, DNA 20 nM; RNA EMSA 256 nM Cas9 and sgRNA, 37 C. Particulars: protein: recombinant;recombinant; tags: ;tag removed by TEV; label: Cy5 on target strand; blunt.

For another data set, the target named is St1Cas9;AcrIIA30 (Streptococcus …, UniProt Q03LF7; 1-1121;, |). Kind of data set: EMSA; sgRNA; AcrIIA30 added after DNA; supershift; 20 mM Tris-HCl pH 7.6, 150 mM KCl, 5 mM EDTA (Results text: 10 mM EDTA), 5 mM MgCl2, 1 mM DTT, 5% glycerol, 50 ug/ml heparin, 0.01% Tween 20, 100 ug/ml BSA; RNP and DNA steps 37 C 10 min, Acr RT 20 min; RNP 256 nM, DNA 20 nM; RNA EMSA 256 nM Cas9 and sgRNA, 37 C. The following applies: protein: recombinant;recombinant; tags: His (pET28a, Ni-NTA);tag removed by TEV; copies: 1;1; label: Cy5 on target strand; blunt.

B1: Substrate DNA, St3Cas9 sgRNA target (dsDNA)
DNA 1: CTCACGGGTGTCATTCTCCACTCAGTGGCAGACCTTGCTCCCGCGAGGAGTAGTCG
DNA 2: CGACTACTCCTCGCGGGAGCAAGGTCTGCCACTGAGTGGAGAATGACACCCGTGAG
Take B1: the binding result in the data set with St3Cas9;AcrIIA24 is “binds”.

B2: Substrate DNA, SpyCas9 sgRNA target (dsDNA)
DNA 1: CTCACGGGTGTCATTCTCCACTCAGTGGCAGACCTTGCTCCCGCGAGGAGTAGTCG
DNA 2: CGACTACTCCTCGCGGGAGCAAGGTCTGCCACTGAGTGGAGAATGACACCCGTGAG
For B2, the binding result with SpyCas9;AcrIIA32.1 is given as “binds”.

B3: Substrate DNA, St1Cas9 sgRNA target (dsDNA)
DNA 1: CTCACGGGTGTCATTCTCCACTCAGTGGCAGACCTTGCTCCCGCGAGGAGTAGTCG
DNA 2: CGACTACTCCTCGCGGGAGCAAGGTCTGCCACTGAGTGGAGAATGACACCCGTGAG
For B3, the binding result with St1Cas9;AcrIIA30 is given as “binds”.
